Assay results: patent publication US20190183138A1, “MILK COAGULANT AND METHOD FOR PRODUCING CHEESE” (CHINA AGRICULTURAL UNIVERSITY, priority 2017, published 2019)

Test system: 12% skim milk
Experiment: Milk clotting activity (MCA) assay, curd formation time
Type: biochemical
Details: 12% skim milk in 10 mM CaCl2, pH 6.5, 37° C.; FIG. 5
Method: The MCA of the C. otophyllum proteases was determined using a modified method of He et al. (2011). One milliliter of substrate (12% skim milk in 10 mM CaCl2, pH 6.5) was incubated under 37° C. for 5 min, then 0.1 mL of the protease extracted solution was added. The time needed for curd formation was recorded and the MCA was expressed in Soxhlet units (SU). One SU of MCA was defined as the amount of the protease extracted solution required to clot 1 mL of substrate within 40 min at 37° C.
where V stands for the volume of the substrate (mL); v stands for the volume of the protease extract; and t stands for the milk-clotting time (s).
The C. otophyllum proteases were extracted as described by Huang et al. (2011) with some modifications. The C. otophyllum leaves were cut into pieces, mixed with a buffer at different solid-liquid ratios (i.e. ratio of mass to volume) for extraction, and then left for 2 h under 4° C., thus obtaining an extracted solution. After successive filtration through 4 layers of cheesecloth and a 0.22-μm membrane, the filtrate was concentrated by ultrafiltration with a 10-kDa molecular weight cut-off membrane at 8000 × g for 40 minutes at 4° C., with the retentate obtained as the concentrated solution of C. otophyllum proteases, which was assayed for protein concentration following the method of Bradford (1976) and curd formation time for 12% (w/v) skim milk.

B1: papain (protein, UniProt P00784 134-345, looked up)
Papain: IPEYVDWRQKGAVTPVKNQGSCGSCWAFSAVVTIEGIIKIRTGNLNEYSEQELLDCDRRSYGCNGGYPWSALQLVAQYGIHYRNTYPYEGVQRYCRSREKGPYAAKTDGVRQVQPYNEGALLYSIANQPVSVVLEAAGKDFQLYRGGIFVGPCGNKVDHAVAAVGYGPNYILIKNSWGTGWGENGYIRIKRGTGNSYGVCGLYTSSFYPVKN
notes: cysteine protease from Sigma-Aldrich used as comparison
For B1, the “MCA (milk-clotting activity)” value was 100.2 SU/mg.
